Source: article PMC2888147 (The Biochemical journal, 2010)

Assays:
[1] = biological target: T1, His-tagged KCNQ1 full-length C-terminus (Q1Cf, 349-676) (human, UniProt P51787 349-676); test: SPR
T1 sequence (looked up): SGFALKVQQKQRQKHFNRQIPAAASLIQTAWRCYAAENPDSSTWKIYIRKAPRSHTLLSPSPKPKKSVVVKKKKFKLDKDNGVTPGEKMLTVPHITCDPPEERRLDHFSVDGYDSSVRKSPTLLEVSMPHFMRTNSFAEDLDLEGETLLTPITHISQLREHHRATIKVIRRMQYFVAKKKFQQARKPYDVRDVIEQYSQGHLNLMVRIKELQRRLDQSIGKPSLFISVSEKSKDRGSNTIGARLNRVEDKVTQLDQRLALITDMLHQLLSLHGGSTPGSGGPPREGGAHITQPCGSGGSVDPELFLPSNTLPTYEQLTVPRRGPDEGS

[2] = biological target: T2, His-tagged KCNQ1 C-terminal fragment Q1C1 (349-480) (human, UniProt P51787 349-480); test: SPR
T2 sequence (looked up): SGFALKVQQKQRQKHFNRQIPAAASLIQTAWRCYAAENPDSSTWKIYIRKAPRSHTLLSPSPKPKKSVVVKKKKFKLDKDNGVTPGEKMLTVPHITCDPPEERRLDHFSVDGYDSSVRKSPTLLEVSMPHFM

Kd [1]: 3.2 ± 0.7 µM | Kd [2]: 4.6 ± 1.4 µM
B1: His-tagged KCNE1 C-terminus (E1C) (domain or fragment)
chain: not shown
